Laboratory results reported in patent US20230149532A1.
Read-outs that look alike come from different tables or passages of the source.

What was measured:
[1] = molecular target: ACE-2 receptor on Vero e6 cells (African green monkey (Vero e6 cells)); test: two-color confocal microscopy, co-localization on Vero e6 cells (n=10 analyses)
[2] = molecular target: ACE-2 receptor on Vero e6 cells (African green monkey (Vero e6 cells))

Substance	fold increase over the non-specific H7 control [1] [fold]	particles per field (particles per field) [1]	particles per field (particles per field) [2]
angiotensin II (from UniProt P01019 25-32) (peptide)	2.79	452	–
plant-produced recombinant H7 strain influenza HA protein	–	–	122
